# Results taken from article PMC7939478, “Development of a novel mammalian display system for selection of antibodies against membrane proteins” (The Journal of Biological Chemistry, 2020).
# Molecular target: T1, human epithelial cell adhesion molecule (EpCAM) on CHO–EpCAM cells (Homo sapiens, UniProt P16422)
# T1 construct: BC014785.1, expressed on the surface of CHO cells; source: CHO-X cells, lentiviral transduction, doxycycline-inducible, on the cell surface (clone SP1D12)
# Assay: flow cytometry on cells; self-labeling: CHO–EpCAM cells transduced with the HA-tagged scFv, cultured 3 days with or without doxycycline, stained with anti-HA-PE
# Conditions: partners not purified
# T1 sequence (P16422 24-314): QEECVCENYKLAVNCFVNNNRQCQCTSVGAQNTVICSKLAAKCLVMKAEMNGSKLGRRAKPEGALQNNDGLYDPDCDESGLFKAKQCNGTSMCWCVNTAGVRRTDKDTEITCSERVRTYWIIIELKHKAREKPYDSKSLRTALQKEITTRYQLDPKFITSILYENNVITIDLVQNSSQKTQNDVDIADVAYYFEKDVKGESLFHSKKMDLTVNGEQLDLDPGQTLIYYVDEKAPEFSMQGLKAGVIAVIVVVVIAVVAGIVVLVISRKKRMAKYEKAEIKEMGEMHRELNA
binder,measurement,value
"known anti-EpCAM scFv with a C-terminal HA tag (scFv, V domains shown, Cloned into the pSF lentivector used for the scFv library; also called control anti-EpCAM scFv; source: CHO–EpCAM cells, lentiviral transduction, secreted by the same cells that carry the target; not shown: HA, C-terminal, kept) VH: VQLLEQSGAELVRPGTSVKISCKASGYAFTNYWLGWVKQRPGHGLEWIGDIFPGSGNIHYNEKFKGKATLTADKSSSTAYMQLSSLTFEDSAVYFCARLRNWDEPMDYWGQGTTVTVSS VL: ELVMTQSPSSLTVTAGEKVTMSCKSSQSLLNSGNQKNYLTWYQQKPGQPPKLLIYWASTRESGVPDRFTGSGSGTDFTLTISSVQAEDLAVYYCQNDYSYPLTFGAGTKLEIK",fold increase in self-labeling signal (with against without doxycycline),> 100 fold
